The text below walks through data of patent publication US20220144956A1 (published 2022).

Positions count from the first letter of the chain named. Where two headings read alike, the source gives them in different places.

The target of assay [1] is T1, human TGFßRII (antigen of the Octet experiments) (human, UniProt P37173 23-166). The assay is described as follows: BLI (Octet). (Biolayer interferometry detects binding as a change in optical thickness at a sensor tip.)
Assay [2] deals with T1, human TGFßRII (antigen of the Octet …). Nature of the assay: BLI (Octet). This is another data set of the same source.
The next assay deals with Cyno (cynomolgus monkey). Nature of the assay: Octet.
In assay [3] the target is T2, His-tagged human CD5 antigen (human, UniProt P06127 25-372).
T2 chain: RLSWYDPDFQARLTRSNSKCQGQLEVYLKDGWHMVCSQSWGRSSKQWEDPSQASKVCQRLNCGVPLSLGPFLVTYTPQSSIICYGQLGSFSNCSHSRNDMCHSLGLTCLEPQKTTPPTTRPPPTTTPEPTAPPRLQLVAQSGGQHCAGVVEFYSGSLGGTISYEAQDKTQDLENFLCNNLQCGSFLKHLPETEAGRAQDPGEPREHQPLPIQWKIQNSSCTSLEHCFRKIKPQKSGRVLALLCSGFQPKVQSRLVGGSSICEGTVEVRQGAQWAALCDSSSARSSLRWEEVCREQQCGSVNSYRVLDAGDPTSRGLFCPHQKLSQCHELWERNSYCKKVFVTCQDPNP
Nature of the assay: Octet.

T1 sequence (P37173 23-166): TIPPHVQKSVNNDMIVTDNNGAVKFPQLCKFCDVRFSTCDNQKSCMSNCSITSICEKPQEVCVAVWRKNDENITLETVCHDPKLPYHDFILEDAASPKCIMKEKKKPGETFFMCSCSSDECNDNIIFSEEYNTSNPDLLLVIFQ

B1: H1.21 L1 XENP35103 (antibody, V domains shown)
VH: QLQVQESGPGLVKPSETLSLTCTVSGGSISNSAFSWGWIRQPPGKGLEWIGSFYYGEKTYYNPSLKSRATISIDTSKSQFSLKLSSVTAADTAVYYCPRGPTMIRGVIDSWGQGTLVTVSS
VL: EIVLTQSPATLSLSPGERATLSCRASQSVRSYLAWYQQKPGQAPRLLIYDASNRATGIPARFSGSGSGTDFTLTISSLEPEDFAVYYCQQRSNWPPTFGQGTKVEIK
As usually defined, the Kd is the constant that tells how readily two partners part at equilibrium. As to B1, in assay [1], the Kd was 0.374 nM.

B2: H1 L1.55 XENP34618 (antibody, V domains shown)
VH: B1 VH with A33Y
VL: B1 VL with P96I
The molecule B2 came in with a Kd in assay [2] of 38 nM.

B3: H1 L1.60 XENP34623 (antibody, V domains shown)
VH: B1 VH with A33Y
VL: B1 VL with Q100P
Turning to B3, in assay [2], the Kd came out at 0.888 nM. Against the preceding molecule, the Kd is about 43-fold lower.

B4: H1.1 L1 XENP34288 (antibody, V domains shown)
VH: B1 VH with A33Y, M103V
VL: B1 VL
For the molecule B4, the Kd in assay [1] came to 0.352 nM.

B5: H1 L1 XENP34287 (antibody, V domains shown)
VH: B1 VH with A33Y
VL: B1 VL
B5: in assay [1], the affinity, expressed as Kd, was 0.112 nM. This Kd lies about 3.1-fold lower than the previous one.

B6: XENP37385 – αCD5 (Cd5-A) x αTGFßRII (bispecific antibody)
heavy: EVQLKESGAELVRPGGSVKISCKGSGYTFTNFAIHWVKQSHIKTLEWIGLISTSSGDVSYNQKFKDKATMTVDKSSSTAYMELARLTSEDSAIYYCARHYGANNYFDYWGQGTLVTVSSASTKGPSVFPLAPSSKSTSGGTAALGCLVKDYFPEPVTVSWNSGALTSGVHTFPAVLQSSGLYSLSSVVTVPSSSLGTQTYICNVNHKPSDTKVDKKVEPKSCDKTHTCPPCPAPPVAGPSVFLFPPKPKDTLMISRTPEVTCVVVDVKHEDPEVKFNWYVDGVEVHNAKTKPREEEYNSTYRVVSVLTVLHQDWLNGKEYKCKVSNKALPAPIEKTISKAKGQPREPQVYTLPPSREEMTKNQVSLTCDVSGFYPSDIAVEWESDGQPENNYKTTPPVLDSDGSFFLYSKLTVDKSRWEQGDVFSCSVMHEALHNHYTQKSLSLSPGK
scFv-Fc: QLQVQESGPGLVKPSETLSLTCTVSGGSISNSYFSWGWIRQPPGKGLEWIGSFYYGEKTYYNPSLKSRATISIDTSKSQFSLKLSSVTAADTAVYYCPRGPTVIRGVIDSWGQGTLVTVSSGKPGSGKPGSGKPGSGKPGSEIVLTQSPATLSLSPGERATLSCRASQSVRSYLAWYQQKPGQAPRLLIYDASNRATGIPARFSGSGSGTDFTLTISSLEPEDFAVYYCQQRSNWPPTFGQGTKVEIKEPKSSDKTHTCPPCPAPPVAGPSVFLFPPKPKDTLMISRTPEVTCVVVDVKHEDPEVKFNWYVDGVEVHNAKTKPREEQYNSTYRVVSVLTVLHQDWLNGKEYKCKVSNKALPAPIEKTISKAKGQPREPQVYTLPPSREQMTKNQVKLTCLVKGFYPSDIAVEWESNGQPENNYKTTPPVLDSDGSFFLYSKLTVDKSRWQQGNVFSCSVMHEALHNHYTQKSLSLSPGK
light: EIVLTQSPTIMSASPGEQVTMTCRTNSSVSSSYLHWYQQKSGASPKLWIYGTSNLASGVPTRFSGSGSGTSYSLTISSVEAGDAATYFCQQYSGYPLTFGGGTKVEIKRTVAAPSVFIFPPSDEQLKSGTASVVCLLNNFYPREAKVQWKVDNALQSGNSQESVTEQDSKDSTYSLSSTLTLSKADYEKHKVYACEVTHQGLSSPVTKSFNRGEC
As for B6, binding with Cyno was put at a Kd of 11.3 nM.

B7: XENP37388 (bispecific antibody)
heavy: QVTLKESGAELVRPGASVKLSCKASGYSFTSYWMNWVKQRPGQGLEWIGMIHPSDSETRLNQKFKDKATLTVDKSSSTAYMQLSSPTSEDSAVYYCARWGDHDDAMDFWGQGTMVTVSSASTKGPSVFPLAPSSKSTSGGTAALGCLVKDYFPEPVTVSWNSGALTSGVHTFPAVLQSSGLYSLSSVVTVPSSSLGTQTYICNVNHKPSDTKVDKKVEPKSCDKTHTCPPCPAPPVAGPSVFLFPPKPKDTLMISRTPEVTCVVVDVKHEDPEVKFNWYVDGVEVHNAKTKPREEEYNSTYRVVSVLTVLHQDWLNGKEYKCKVSNKALPAPIEKTISKAKGQPREPQVYTLPPSREEMTKNQVSLTCDVSGFYPSDIAVEWESDGQPENNYKTTPPVLDSDGSFFLYSKLTVDKSRWEQGDVFSCSVMHEALHNHYTQKSLSLSPGK
scFv-Fc: B6 scFv-Fc
light: DIVLTQSPASLSASVGESVTITCRPSENIYGYFAWYQQRQGKSPQLLVYNAKTLAEGVPSRFSGSGSGTHFSLKINSLQPEDFGTYYCQHHYGTPFTFGPGTKVDIKRTVAAPSVFIFPPSDEQLKSGTASVVCLLNNFYPREAKVQWKVDNALQSGNSQESVTEQDSKDSTYSLSSTLTLSKADYEKHKVYACEVTHQGLSSPVTKSFNRGEC
As to B7, the Kd in assay [3] is 2.75 nM.

B8: XENP35399 – αCD5 (5D7) x αTGFßRII (bispecific antibody)
heavy: EVQLVESGGGVVQPGRSLRLSCTFSGFSLSTSGMGVGWIRQAPGKGLEWVAHIWWDDDVYYNPSLKSRLTITKDASTDTVYMELSSLRSEDTAVYYCVRRRATGTGFDYWGQGTLVTVSSASTKGPSVFPLAPSSKSTSGGTAALGCLVKDYFPEPVTVSWNSGALTSGVHTFPAVLQSSGLYSLSSVVTVPSSSLGTQTYICNVNHKPSDTKVDKKVEPKSCDKTHTCPPCPAPPVAGPSVFLFPPKPKDTLMISRTPEVTCVVVDVKHEDPEVKFNWYVDGVEVHNAKTKPREEEYNSTYRVVSVLTVLHQDWLNGKEYKCKVSNKALPAPIEKTISKAKGQPREPQVYTLPPSREEMTKNQVSLTCDVSGFYPSDIAVEWESDGQPENNYKTTPPVLDSDGSFFLYSKLTVDKSRWEQGDVFSCSVMHEALHNHYTQKSLSLSPGK
scFv-Fc: B6 scFv-Fc
light: NIVMTQSPSSLSASVGDRVTITCQASQDVGTAVAWYQQKPDQSPKLLIYWTSTRHTGVPDRFTGSGSGTDFTLTISSLQPEDIATYFCHQYNSYNTFGSGTKLEIKRTVAAPSVFIFPPSDEQLKSGTASVVCLLNNFYPREAKVQWKVDNALQSGNSQESVTEQDSKDSTYSLSSTLTLSKADYEKHKVYACEVTHQGLSSPVTKSFNRGEC
The molecule B8 displayed a Kd with Cyno of 72 nM.

B9: XENP37388 – αCD5 (Cd5-B) x αTGFßRII (bispecific antibody)
heavy: B7 heavy
scFv-Fc: B6 scFv-Fc
light: B7 light
For the molecule B9, the affinity with Cyno, expressed as Kd, was 0.74 nM.
